Laboratory results published in publication PMC8185509 (Molecular Medicine Reports, 2021).

Target: T1, optic atrophy 1, Myc-tagged (OPA1-myc) (UniProt O60313-1 88-960)
T1 sequence (looked up): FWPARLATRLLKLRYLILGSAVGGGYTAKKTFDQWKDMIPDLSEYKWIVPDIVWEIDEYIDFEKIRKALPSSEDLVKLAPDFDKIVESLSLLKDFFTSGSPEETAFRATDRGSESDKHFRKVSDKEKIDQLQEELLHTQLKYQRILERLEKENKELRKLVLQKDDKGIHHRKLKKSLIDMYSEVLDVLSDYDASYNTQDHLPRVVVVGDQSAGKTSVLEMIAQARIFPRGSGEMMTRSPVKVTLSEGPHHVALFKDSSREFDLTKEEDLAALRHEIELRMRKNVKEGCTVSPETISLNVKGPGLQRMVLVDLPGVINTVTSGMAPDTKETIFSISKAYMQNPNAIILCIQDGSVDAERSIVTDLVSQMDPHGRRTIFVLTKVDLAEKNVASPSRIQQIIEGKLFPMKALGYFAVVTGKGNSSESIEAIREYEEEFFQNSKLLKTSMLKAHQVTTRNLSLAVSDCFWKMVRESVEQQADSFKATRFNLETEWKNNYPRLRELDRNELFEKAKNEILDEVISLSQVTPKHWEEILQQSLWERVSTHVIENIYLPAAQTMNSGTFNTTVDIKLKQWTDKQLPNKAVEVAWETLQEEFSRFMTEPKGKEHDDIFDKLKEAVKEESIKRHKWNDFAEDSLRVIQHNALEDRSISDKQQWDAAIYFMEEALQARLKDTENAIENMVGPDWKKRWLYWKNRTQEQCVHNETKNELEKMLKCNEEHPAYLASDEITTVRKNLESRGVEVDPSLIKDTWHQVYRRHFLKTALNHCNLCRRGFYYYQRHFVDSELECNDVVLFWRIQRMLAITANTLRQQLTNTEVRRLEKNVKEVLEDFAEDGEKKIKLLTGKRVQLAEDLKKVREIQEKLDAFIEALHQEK
Test: pull-down

binding result: binds
B1: recombinant GST-fused HIGD-1B (natural protein, human, UniProt Q9P298 1-99, looked up)
chain: MSANRRWWVPPDDEDCVSEKLLRKTRESPLVPIGLGGCLVVAAYRIYRLRSRGSTKMSIHLIHTRVAAQACAVGAIMLGAVYTMYSDYVKRMAQDAGEK
